Sequences and labels used below:
B1: Transcriptional regulator ERG, residues 117 to 197; numbered along this chain, P11308 (parent)
chain: NMTTNERRVIVPADPTLWSTDHVRQWLEWAVKEYGLPDVNILLFQNIDGKELCKMTKDDFQRLTPSYNADILLSHLHYLRE

± gives the uncertainty stated by the source.

In this series the parent is B1. Put plainly: abundance fitness (aPCA) (normalised: wild type 0, dead -1); higher = more abundant; growth selection in yeast, the domain comes from the species named. As to conditions: Homo sapiens.
Consider NMTTNERRVIVPADPTLWSTDHVRQWLEWAVKEYGLPDVNILLAQNIDGKELCKMTKDDFQRLTPSYNADILLSHLHYLRE, for which the abundance fitness is -0.195 ± 0.042. In the case of NMTTNERRVIVPADPTLWSTDHVRQWLEWAVKEYGLPDVSILLFQNIDGKELCKMTKDDFQRLTPSYNADILLSHLHYLRE it was -0.236 ± 0.05.

For NMTTNERRVIVPADPTLWSTDHVRQWLEWAVKEYGLPDVRILLFQNIDGKELCKMTKDDFQRLTPSYNADILLSHLHYLRE, the abundance fitness is -0.255 ± 0.039. For NMTTNERRVIVPADPTLWSTDHVRQWLEWAVKEYGLPDVQILLFQNIDGKELCKMTKDDFQRLTPSYNADILLSHLHYLRE the value was -0.165 ± 0.063; for NMTTNERRVIVPADPTLWSTDHVRQWLEWAVKEYGLPDVFILLFQNIDGKELCKMTKDDFQRLTPSYNADILLSHLHYLRE, -0.419 ± 0.1. For NMTTNERRVIVPADPTLWSTDHVRQWLEWAVKEYGLPDVPILLFQNIDGKELCKMTKDDFQRLTPSYNADILLSHLHYLRE the value was -0.153 ± 0.06; for NMTTNERRVIVPADPTLWSTDHVRQWLEWAVKEYGLPDVDILLFQNIDGKELCKMTKDDFQRLTPSYNADILLSHLHYLRE, 0.072 ± 0.058. As to NMTTNERRVIVPADPTLWSTDHVRQWLEWAVKEYGLPDVLILLFQNIDGKELCKMTKDDFQRLTPSYNADILLSHLHYLRE, the abundance fitness was -0.179 ± 0.044. For NMTTNERRVIVPADPTLWSTDHVRQWLEWAVKEYGLPDVMILLFQNIDGKELCKMTKDDFQRLTPSYNADILLSHLHYLRE the value was -0.413 ± 0.078; for NMTTNERRVIVPADPTLWSTDHVRQWLEWAVKEYGLPDVIILLFQNIDGKELCKMTKDDFQRLTPSYNADILLSHLHYLRE, -0.317 ± 0.094; for NMTTNERRVIVPADPTLWSTDHVRQWLEWAVKEYGLPDVHILLFQNIDGKELCKMTKDDFQRLTPSYNADILLSHLHYLRE, -0.292 ± 0.077. For the variant NMTTNERRVIVPADPTLWSTDHVRQWLEWAVKEYGLPDVYILLFQNIDGKELCKMTKDDFQRLTPSYNADILLSHLHYLRE, the abundance fitness is -0.284 ± 0.086. In the case of NMTTNERRVIVPADPTLWSTDHVRQWLEWAVKEYGLPDVTILLFQNIDGKELCKMTKDDFQRLTPSYNADILLSHLHYLRE it was -0.213 ± 0.058; in that of NMTTNERRVIVPADPTLWSTDHVRQWLEWAVKEYGLPDVCILLFQNIDGKELCKMTKDDFQRLTPSYNADILLSHLHYLRE, -0.172 ± 0.071; in that of NMTTNERRVIVPADPTLWSTDHVRQWLEWAVKEYGLPDVGILLFQNIDGKELCKMTKDDFQRLTPSYNADILLSHLHYLRE, -0.4 ± 0.044. In the case of NMTTNERRVIVPADPTLWSTDHVRQWLEWAVKEYGLPDVNHLLFQNIDGKELCKMTKDDFQRLTPSYNADILLSHLHYLRE it was -0.075 ± 0.083; in that of NMTTNERRVIVPADPTLWSTDHVRQWLEWAVKEYGLPDVNFLLFQNIDGKELCKMTKDDFQRLTPSYNADILLSHLHYLRE, 0 ± 0.076; in that of NMTTNERRVIVPADPTLWSTDHVRQWLEWAVKEYGLPDVNQLLFQNIDGKELCKMTKDDFQRLTPSYNADILLSHLHYLRE, -0.112 ± 0.054. For NMTTNERRVIVPADPTLWSTDHVRQWLEWAVKEYGLPDVNWLLFQNIDGKELCKMTKDDFQRLTPSYNADILLSHLHYLRE the value was -0.159 ± 0.045; for NMTTNERRVIVPADPTLWSTDHVRQWLEWAVKEYGLPDVNDLLFQNIDGKELCKMTKDDFQRLTPSYNADILLSHLHYLRE, -0.157 ± 0.072. Regarding NMTTNERRVIVPADPTLWSTDHVRQWLEWAVKEYGLPDVNYLLFQNIDGKELCKMTKDDFQRLTPSYNADILLSHLHYLRE, the abundance fitness is -0.057 ± 0.073.

For the variant NMTTNERRVIVPADPTLWSTDHVRQWLEWAVKEYGLPDVNVLLFQNIDGKELCKMTKDDFQRLTPSYNADILLSHLHYLRE, the abundance fitness was -0.021 ± 0.039. In the case of NMTTNERRVIVPADPTLWSTDHVRQWLEWAVKEYGLPDVNALLFQNIDGKELCKMTKDDFQRLTPSYNADILLSHLHYLRE, the abundance fitness is -0.145 ± 0.044. In the case of NMTTNERRVIVPADPTLWSTDHVRQWLEWAVKEYGLPDVNRLLFQNIDGKELCKMTKDDFQRLTPSYNADILLSHLHYLRE it was -0.187 ± 0.036. In the case of NMTTNERRVIVPADPTLWSTDHVRQWLEWAVKEYGLPDVNELLFQNIDGKELCKMTKDDFQRLTPSYNADILLSHLHYLRE, the abundance fitness was -0.053 ± 0.051. For NMTTNERRVIVPADPTLWSTDHVRQWLEWAVKEYGLPDVNSLLFQNIDGKELCKMTKDDFQRLTPSYNADILLSHLHYLRE the value was -0.128 ± 0.048; for NMTTNERRVIVPADPTLWSTDHVRQWLEWAVKEYGLPDVNTLLFQNIDGKELCKMTKDDFQRLTPSYNADILLSHLHYLRE, -0.034 ± 0.057. In the case of NMTTNERRVIVPADPTLWSTDHVRQWLEWAVKEYGLPDVNGLLFQNIDGKELCKMTKDDFQRLTPSYNADILLSHLHYLRE it was -0.097 ± 0.035.

Turning to NMTTNERRVIVPADPTLWSTDHVRQWLEWAVKEYGLPDVNNLLFQNIDGKELCKMTKDDFQRLTPSYNADILLSHLHYLRE, the abundance fitness is -0.136 ± 0.081. In the case of NMTTNERRVIVPADPTLWSTDHVRQWLEWAVKEYGLPDVNPLLFQNIDGKELCKMTKDDFQRLTPSYNADILLSHLHYLRE it was -0.024 ± 0.067; in that of NMTTNERRVIVPADPTLWSTDHVRQWLEWAVKEYGLPDVNCLLFQNIDGKELCKMTKDDFQRLTPSYNADILLSHLHYLRE, -0.034 ± 0.053. NMTTNERRVIVPADPTLWSTDHVRQWLEWAVKEYGLPDVNLLLFQNIDGKELCKMTKDDFQRLTPSYNADILLSHLHYLRE: the abundance fitness was -0.027 ± 0.038.

With NMTTNERRVIVPADPTLWSTDHVRQWLEWAVKEYGLPDVNKLLFQNIDGKELCKMTKDDFQRLTPSYNADILLSHLHYLRE, the abundance fitness came out at 0.012 ± 0.05. For NMTTNERRVIVPADPTLWSTDHVRQWLEWAVKEYGLPDVNMLLFQNIDGKELCKMTKDDFQRLTPSYNADILLSHLHYLRE the value was -0.061 ± 0.056.

Source of the values: the Human Domainome abundance scans (Beltran et al. 2025).
